{"source": "the DeepSol protein solubility set", "data": [{"assay": "soluble on expression in E. coli; label from the status in PepcDB or PDB records", "values": [{"sequence": "MGSDKIHHHHHHMARYRVHVNDPLDKEATQLLMNKEELEVTSEHLEKDELMKIIPEVDVLVVRSATKVTADIIEAGKNLKIIARAGIGLDNIDVQKAKEKGIKVLNTPGASAPSVAELAMGLMLACARHIARATVSLKEGKWEKKALKGKELLGKTLGLIGFGNIGQEVAKRALAFGMKIIAYDPAKPETDLPVEYVDLDTLFKESDFISLHVPLTESTRHIINRESIAKMKDGVIIVNTARGGTIDEEALYEEVVSGKVYAAGLDVFEVEPPTDEIRRKLLSLDNVVATPHIGASTAEAQRRVGIELVEKIFKELGI", "soluble on expression in E. coli": "not soluble"}, {"sequence": "MGSDKIHHHHHHMASAATEGQLADWRTRALKLEDEVKKVIVGQDAAIRLINIAIFARGHVMLEGGVGVGKTTLLQSVARGIGGAYERIEGTVDLMPNDLVYHTFLGPEGRPQIDEGPLLRAGENLSVFFFNEINRARPQVHALMLRVMAERHLHAFKREYRLPHMVVFADRNQVEKNETFEIPSAARDRFMMEIPIHVPEDKALRKSLVFDTRFQHAEQLTHTVESGLLPFNMLNDFSDVVQNHVQSSQALEDYVIDLWDATQKPQDFGITLEGIDMQRLIQAGASPRGMGMLLKAARVHAWLMEREYVYPEDIHAVFHEVIAHRLVFNSMYESRRTVLARELTAKILQTVAVPS", "soluble on expression in E. coli": "not soluble"}, {"sequence": "MGSDKIHHHHHHMASIKAINNSAHGNVKVKSNPSFIQSKTKHFAPVVVQEFISASKEFPIVFIKDAETGRFNAVVLLGLKPQENLFFDEKSWQGSYIPEALTLYPFVIHQAEGSDKALLCVDEDSALVNETIGDAFFDEKGVQKEWLTAKGEAVVDYVNKSGVTQNFIQLLLAKELLAPQTLSLNLAGQEEYTLDGLYVINEQKLNDLSDSEFSELRKTNALPAIYAILMSMQCIKKLIDRQSSK", "soluble on expression in E. coli": "not soluble"}, {"sequence": "MGSDKIHHHHHHMASIKDVAKLAGVSIATVSRVINGYNNVSEETRKKVIDAIRKLNYHPVYAVKGAVLKRTIGVLVPNFGGFHYNEILTGIEKEAIKRDFTLMISTTLHRTSVELERLEVFFAKRVDGIIVCSSKKDEEQLERLIKSAIPVVVVDREEPEIRLDNVGIDNYAAGRMCAKYLLEKGHRKVLLLKGRKDIYSFSDRERGFIDYSTRHGIDVKVTPCGYFAEHGYHAVERYLKKHGRDFTAIFAINDLSAFGALKALHDLGVLVPDEVSVMGFDDDPISSYTIPPLTTVRQPREEMGRVAFEILYERLSGKKGVARRVVLPVEIVERESVKQL", "soluble on expression in E. coli": "not soluble"}, {"sequence": "MGSDKIHHHHHHMASLSELAVFIAVAEQGSFVGAGRVLGVSASAVGKRISRLEVDLGVRLLQRNTRSLALTAEGETVLSRGRSLLDEAESLRVVLERSSRQPGGVLRLSLPPIGGVLMAELAAFRQRYPEVALELDYSERNVDIIEEGFDAAIRVGAGDDGKLRSLALPGFRRLIVAAPDYLVRHGQPRSAAQLAEHQLIHYRSPNSGKLEAWPLVNAELPRALVCNSVHARLDFALQGQGIACLPDISIRRELEDGSLRPLLGSENGEKVVLRLLWPSSRGLSARMEAFLGFMRERSGAAPCENFKVRA", "soluble on expression in E. coli": "not soluble"}, {"sequence": "MGSDKIHHHHHHMASPGSGFWSFGSEDGSADPENPGTARAWCQVAQKFTGGIGNKLCALLYGDSGKPAEGGGSVTSRAATGKVACTCDQKPCNCPKGDVNYAFLHATDLLPACDGERPTLAFLQDVMNILLQYVVKSFDRSTKVIDFHYPNELLQEYNWELADQPQNLEEILTHCQTTLKYAIKTGHPRYFNQLSTGLDMVGLAADWLTSTANTNMFTYEIAPVFVLLEYVTLKKMREIIGWPGGSGDGIFSPGGAISNMYAMLIARYKMFPEVKEKGMAAVPRLIAFTSEHSHFSLKKGAAALGIGTDSVILIKCDERGKMIPSDLERRILEVKQKGFVPFLVSATAGTTVYGAFDPLLAVADICKKYKIWMHVDAAWGGGLLMSRKHKWKLSGVERANSVTWNPHKMMGVPLQCSALLVREEGLMQSCNQMHASYLFQQDKHYDLSYDTGDKALQCGRHVDVFKLWLMWRAKGTTGFEAHIDKCLELAEYLYTIIKNREGYEMVFDGKPQHTNVCFWFVPPSLRTLEDNEERMSRLSKVAPVIKARMMEYGTTMVSYQPLGDKVNFFRMVISNPAATHQDIDFLIEEIERLGQDL", "soluble on expression in E. coli": "not soluble"}, {"sequence": "MGSDKIHHHHHHMASPINESRIGYLYEAVRSGTVRAAADYLDVAPSAVSRQIALLEEELAIALVERNKRGVRPTEAGALLIEYFRQQRSHQGDLVAKLQEIRGLRRGTIVVVMGEGFASTMVGGPIKQFCEAYPEISITMDLCSTNEVMRRVSEDEADIGLVFNPSSDSKIVSRAGSRQPMHAIVSPAFPLVGKVKSVTLQDLMPYPMALTHPEHGTRRLVDAAMLLDKVRLTPAITTNSVNVLKLFAKSNLGFTLLAPIAIAPELAAGELVALPVDNRLLESSEAHLVTRAGRQLSPAANRLLNRLKAQIHKYDEYGAESGGQASLATQ", "soluble on expression in E. coli": "not soluble"}]}]}
